The values below come from article PMC10397247.

The target in one assay is T1, 4H3926-bA.
T1 chain: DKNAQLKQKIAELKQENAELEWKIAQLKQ
As to the kind of experiment: two-hybrid library CCNG1.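 Note: natural log of median RNA to DNA barcode read ratio; higher means stronger binding.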

In a further assay the target is T2, 4H3162-bA.
T2 chain: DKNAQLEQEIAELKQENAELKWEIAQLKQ
As to the kind of experiment: two-hybrid library CCNG1.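 Note: natural log of median RNA to DNA barcode read ratio; higher means stronger binding.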

For a further assay, the target named is T3, 4H1710-bA.
T3 chain: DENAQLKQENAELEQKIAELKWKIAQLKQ
As to the kind of experiment: two-hybrid library CCNG1.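 Note: natural log of median RNA to DNA barcode read ratio; higher means stronger binding.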

For a further assay, the target named is T4, 4H626-bA.
T4 chain: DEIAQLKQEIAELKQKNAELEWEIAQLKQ
Kind of assay: two-hybrid library CCNG1.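 Note: natural log of median RNA to DNA barcode read ratio; higher means stronger binding.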

The next assay deals with T5, 4H1373-bA.
T5 chain: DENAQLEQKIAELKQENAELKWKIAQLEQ
As to the kind of experiment: two-hybrid library CCNG1.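 Note: natural log of median RNA to DNA barcode read ratio; higher means stronger binding.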

The next assay has as its target T6, 4H3974-bA.
T6 chain: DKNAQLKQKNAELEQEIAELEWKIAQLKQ
Kind of assay: two-hybrid library CCNG1.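 Note: natural log of median RNA to DNA barcode read ratio; higher means stronger binding.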

For another assay, the target named is T7, 4H3462-bA.
T7 chain: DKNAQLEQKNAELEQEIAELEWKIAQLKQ
As to the kind of experiment: two-hybrid library CCNG1.

In the next assay the target is T8, 4H1544-bA.
T8 chain: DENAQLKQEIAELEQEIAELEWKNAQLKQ
As to the kind of experiment: two-hybrid library CCNG1.

The target of the next assay is T9, 4H3298-bA.
T9 chain: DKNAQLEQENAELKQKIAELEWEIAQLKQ
Kind of assay: two-hybrid library CCNG1.

The target of another assay is T10, 4H619-bN.
T10 chain: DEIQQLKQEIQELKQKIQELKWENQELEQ
Kind of assay: two-hybrid library CCNG1.

The target in the next assay is T11, 4H906-bA.
T11 chain: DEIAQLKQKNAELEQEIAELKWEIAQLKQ
As to the kind of experiment: two-hybrid library CCNG1.

For a further assay, the target named is T12, 4H1449-bA.
T12 chain: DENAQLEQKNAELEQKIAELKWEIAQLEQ
Kind of assay: two-hybrid library CCNG1.

The next assay addresses T13, 4H850-bA.
T13 chain: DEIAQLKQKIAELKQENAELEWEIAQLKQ
As to the kind of experiment: two-hybrid library CCNG1.

The next assay addresses T14, 4H3858-bA.
T14 chain: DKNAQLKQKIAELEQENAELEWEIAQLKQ
As to the kind of experiment: two-hybrid library CCNG1.

For the next assay, the target named is T15, 4H570-bA.
T15 chain: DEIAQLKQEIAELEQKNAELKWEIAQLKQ
Kind of assay: two-hybrid library CCNG1.

Another assay has as its target T16, 4H2691-bA.
T16 chain: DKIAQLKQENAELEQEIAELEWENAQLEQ
As to the kind of experiment: two-hybrid library CCNG1.

The target of the next assay is T17, 4H1899-bA.
T17 chain: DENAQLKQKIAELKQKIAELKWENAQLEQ
Kind of assay: two-hybrid library CCNG1.

A further assay concerns the target T18, 4H3817-bA.
T18 chain: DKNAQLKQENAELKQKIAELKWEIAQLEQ
As to the kind of experiment: two-hybrid library CCNG1.

Another assay deals with T19, 4H3497-bA.
T19 chain: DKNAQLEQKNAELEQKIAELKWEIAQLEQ
Kind of assay: two-hybrid library CCNG1.

The target in a further assay is T20, 4H3628-bA.
T20 chain: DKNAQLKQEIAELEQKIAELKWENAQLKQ
Kind of assay: two-hybrid library CCNG1.

The target in a further assay is T21, 4H3613-bA.
T21 chain: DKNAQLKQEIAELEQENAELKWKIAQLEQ
As to the kind of experiment: two-hybrid library CCNG1.

For a further assay, the target named is T22, 4H3175-bA.
T22 chain: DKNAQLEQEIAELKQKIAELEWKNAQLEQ
As to the kind of experiment: two-hybrid library CCNG1.

The next assay has as its target T23, 4H1985-bA.
T23 chain: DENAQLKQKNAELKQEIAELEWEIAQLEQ
Kind of assay: two-hybrid library CCNG1.

The target in the next assay is T24, 4H591-bA.
T24 chain: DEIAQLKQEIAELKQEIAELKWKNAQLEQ
As to the kind of experiment: two-hybrid library CCNG1.

The next assay concerns the target T25, 4H3277-bA.
T25 chain: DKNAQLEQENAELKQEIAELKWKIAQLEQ
Kind of assay: two-hybrid library CCNG1.

Another assay addresses T26, APC8910-AA.
T26 chain: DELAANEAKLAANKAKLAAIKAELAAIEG
As to the kind of experiment: two-hybrid library CCmax. To be noted: mean of both orientations.

In another assay the target is T27, APC5383-AA.
T27 chain: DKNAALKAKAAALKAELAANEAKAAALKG
Kind of assay: two-hybrid library CCmax. To be noted: mean of both orientations.

In another assay the target is T28, APC3645-AA.
T28 chain: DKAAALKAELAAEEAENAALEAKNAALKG
As to the kind of experiment: two-hybrid library CCmax. To be noted: mean of both orientations.

Another assay addresses T29, 4H2447-AA.
T29 chain: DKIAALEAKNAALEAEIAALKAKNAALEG
As to the kind of experiment: two-hybrid library CCmax.

A further assay deals with T30, 4H716-AA.
T30 chain: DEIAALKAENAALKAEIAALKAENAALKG
As to the kind of experiment: two-hybrid library CCmax. To be noted: mean of both orientations.

Another assay addresses T31, APC4264-AA.
T31 chain: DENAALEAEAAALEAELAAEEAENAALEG
Kind of assay: two-hybrid library CCmax. To be noted: mean of both orientations.

In a further assay the target is T32, APC8191-AA.
T32 chain: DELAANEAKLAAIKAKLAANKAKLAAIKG
As to the kind of experiment: two-hybrid library CCmax. To be noted: mean of both orientations.

Another assay concerns the target T33, APC9096-AA.
T33 chain: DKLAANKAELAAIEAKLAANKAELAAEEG
Kind of assay: two-hybrid library CCmax. To be noted: mean of both orientations.

The target in a further assay is T34, APC2237-AA.
T34 chain: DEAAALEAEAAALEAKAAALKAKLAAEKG
Kind of assay: two-hybrid library CCmax. To be noted: mean of both orientations.

The target of another assay is T35, 4H733-AA.
T35 chain: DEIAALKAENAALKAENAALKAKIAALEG
Kind of assay: two-hybrid library CCmax. To be noted: mean of both orientations.

A further assay addresses T36, APC6108-AA.
T36 chain: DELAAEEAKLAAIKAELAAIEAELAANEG
As to the kind of experiment: two-hybrid library CCmax. To be noted: mean of both orientations.

A further assay concerns the target T37, APC4011-AA.
T37 chain: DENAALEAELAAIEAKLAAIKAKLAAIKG
Kind of assay: two-hybrid library CCmax. To be noted: mean of both orientations.

For a further assay, the target named is T38, APC2405-AA.
T38 chain: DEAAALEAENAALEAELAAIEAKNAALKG
Kind of assay: two-hybrid library CCmax. To be noted: mean of both orientations.

A further assay deals with T39, APC1434-AA.
T39 chain: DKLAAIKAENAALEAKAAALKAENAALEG
As to the kind of experiment: two-hybrid library CCmax. To be noted: mean of both orientations.

In another assay the target is T40, APC7099-AA.
T40 chain: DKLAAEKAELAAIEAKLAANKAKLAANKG
Kind of assay: two-hybrid library CCmax. To be noted: mean of both orientations.

The next assay addresses T41, 4H2458-AA.
T41 chain: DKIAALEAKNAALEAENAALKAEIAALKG
Kind of assay: two-hybrid library CCmax. To be noted: mean of both orientations.

The target of the next assay is T42, APC1015-AA.
T42 chain: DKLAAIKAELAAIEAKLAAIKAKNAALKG
As to the kind of experiment: two-hybrid library CCmax. To be noted: mean of both orientations.

Another assay has as its target T43, 4H807-AA.
T43 chain: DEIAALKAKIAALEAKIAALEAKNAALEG
Kind of assay: two-hybrid library CCmax. To be noted: mean of both orientations.

Another assay concerns the target T44, 4H3330-AA.
T44 chain: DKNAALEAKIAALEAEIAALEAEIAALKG
Kind of assay: two-hybrid library CCmax. To be noted: mean of both orientations.

The next assay has as its target T45, APC4436-AA.
T45 chain: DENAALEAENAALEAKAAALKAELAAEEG
Kind of assay: two-hybrid library CCmax. To be noted: mean of both orientations.

In another assay the target is T46, APC9319-AA.
T46 chain: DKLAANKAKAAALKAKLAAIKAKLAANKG
Kind of assay: two-hybrid library CCmax. To be noted: mean of both orientations.

In a further assay the target is T47, APC232-AA.
T47 chain: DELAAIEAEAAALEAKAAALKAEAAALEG
As to the kind of experiment: two-hybrid library CCmax. To be noted: mean of both orientations.

B1: 4H1373-bA (peptide)
chain: DENAQLEQKIAELKQENAELKWKIAQLEQ
Consider B1, for which the interaction score with 4H3926-bA is 2.27; with 4H3162-bA it was -0.314; with 4H1710-bA, -0.946; with 4H626-bA, -1.61; in the assay with 4H1373-bA, 0.464; with 4H3974-bA, -0.681. Moreover, the interaction score with 4H3462-bA is -0.757; with 4H1544-bA, -0.914; with 4H3298-bA it was -0.776; in the assay with 4H619-bN, -0.473; with 4H906-bA it was -1.26; with 4H1449-bA, -1.22. In addition, the interaction score was -0.104 in the assay with 4H850-bA; 1.36 with 4H3858-bA; -0.799 with 4H570-bA; 0.119 in the assay with 4H2691-bA; -1.03 with 4H1899-bA; -0.693 in the assay with 4H3817-bA. Besides, the interaction score with 4H3497-bA was -1.17; with 4H3628-bA, -0.805; with 4H3613-bA it was 1.71; in the assay with 4H3175-bA it was -0.89; in the assay with 4H1985-bA, -0.533; with 4H591-bA, -0.592. In the assay with 4H3277-bA, this molecule displayed an interaction score of -0.594.

B2: 4H2447-AA (peptide)
chain: DKIAALEAKNAALEAEIAALKAKNAALEG
Turning to B2, the interaction score was -1.68 with APC8910-AA; -1.8 with APC5383-AA; -1.7 with APC3645-AA; 1.72 with 4H2447-AA; -1.36 with 4H716-AA; -1.6 with APC4264-AA. The interaction score in the assay with APC8191-AA is -1.38; with APC9096-AA, -1.78; with APC2237-AA it was -1.38; with 4H733-AA it was -1.83; in the assay with APC6108-AA it was -1.28; with APC4011-AA it was -0.716. In addition, the interaction score in the assay with APC2405-AA was -1.12; in the assay with APC1434-AA it was -1.56; in the assay with APC7099-AA, -1.5; with 4H2458-AA, -1.42; in the assay with APC1015-AA, -2.05; with 4H807-AA it was -1.69. Also, the interaction score in the assay with 4H3330-AA is -0.798; in the assay with APC4436-AA, -1.79; in the assay with APC9319-AA, -1.75; in the assay with APC232-AA it was -1.82.
